Assay results published in the RNAGym collection of RNA variant scans (doi:10.1073/pnas.2313332121).

B1: TPR t1 (parent)
chain: GACCAAUCUGCCCUCAGAGCUCGAGAACAUCUUCGGAUGCAGAGGAGGCAGGCUUCGGUGGCGCGAUAGCGCCAACGUCCUCAACCUCCAAUGCAUCCCACCACAUGAUGAUGCCUGAAGAGCCUUGGUUUUUUG

Variants of: B1
Test: polymerase ribozyme fitness, log enrichment relative to wild type (log ratio); higher = more active; in vitro selection for triplet polymerase activity
Outline: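 Frozen incubation at −7 °C formed the core of a single, triplicate in vitro selection round applied to PCR-built, transcribed mutant libraries of each subunit of a heterodimeric triplet polymerase ribozyme. Extended constructs were gel-excised, captured with streptavidin beads and amplified by RT-PCR, and input and output libraries were Illumina-sequenced with a filter of ≥10 input reads and ≥1 read per output. Fitness is the logarithm of genotype enrichment relative to wild-type enrichment, with inverse-variance-weighted replicate averaging, and the logarithm is base 2.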

Point of comparison: G57A C94G, “polymerase ribozyme fitness (log ratio)” value -2.36. Against it:
- C56A U129G — within 0.2 log units, -2.29
- C56A G61A A111G U125C — lower, -2.99
- C56G G69C A83C C104U — lower, -5.43
- C56G G69C U87C G110A — lower, -5.42
- C56A G60A C101A — higher, -1.49
- C56U G69C G71A C79A G113U — lower, -6.83
- C56A G71C — lower, -4.4
- C56A G71A — lower, -3.71
- U55C A90U — higher, -1.58
- G57A A100U — higher, -1.61
- C56G C86A — higher, -1.6
- C56A C80G C86U — lower, -3.12
- C56U U131A — higher, -0.176
- C56A G58C C114U — within 0.2 log units, -2.47
- C56U C73G — higher, -2
- C56A A83U — higher, -1.62
- G57C — higher, -0.176
- G57A — higher, -0.653
- G57U — higher, -0.128
- G57C C73A G117C — lower, -4.45
- C56G A100U — higher, -0.785
- C56U C80A — higher, -1.98
- C56G C72A — within 0.2 log units, -2.48
- C56G G93A C115A C123U G128U — lower, -4.6
- C56G U92C C123A — higher, -1.13
- C56U C85G — lower, -2.65
- U55A G71U C102U A121G U132A — higher, 0.31
- C56U C89U — higher, -0.281
- C56G C114A — higher, -2
- U55C C70U C88G — higher, -0.976
- G57A G63U A75U U133A — higher, -1.97
- C56U G69A G113U C123G U130G — lower, -6.22
- C56G G63A — lower, -2.75
- G57A U96G A105U C123G G127A — lower, -5.35
- U54G C114A — higher, -1.69
- G57U C79A G93C U112G — lower, -2.9
- G58A G61A C85A G113A — higher, 0.19
- C56U C97U U106A G127U — higher, -0.714
- G57C C62G C104A — lower, -5.81
- U55G G93A G117U — lower, -3.04
- C56G U133A — higher, -0.615
- C56U A90U — higher, -0.55
- U54C G58A G69C A84U — higher, -1.08
- G58A C85U — higher, -1.88
- C56A C115U — higher, -1.67
- U54G A95C U133A — higher, -1.48
- C56G G63C C115A — within 0.2 log units, -2.19
- G57U A119G — higher, 1.22
- C56A A83G G135U — within 0.2 log units, -2.3
- U55G G63A U81C — lower, -3.9
- C56U C123A U126A — higher, 0.177
- U55C C72A U78C C79U A121G — higher, 2.46
- C56U C70U — higher, -0.666
- G57C C82G A95G A111U C123U — lower, -5.52
- U55C C56A A84C A111G U129A — within 0.2 log units, -2.42
- G57C A90G G113U C115A — lower, -5.11
- C56U A95G — higher, 0.263
- C56U A95C — higher, -1.26
- U55A A83G — higher, -0.95
- C56G C70U U96G C101U A111U — lower, -5.15
- C56A U112A G120A G135U — within 0.2 log units, -2.22
- C56A A66G A75G — higher, -0.927
- U54G C62G — lower, -5.55
- C56A A119U — higher, -1.36
- G58A C86U — higher, -0.881
- C56U A105U — within 0.2 log units, -2.17
- C56U U78C U87A — higher, 0.212
- U55C C72G A83G U126A — higher, -2.13
- C56U G69U C79U G120A U130G — higher, -1.59
- C56A C89U — higher, -1
- G57A U78C U87C C104U G113A — higher, -1.61
- U54G U55A G93C C115G — lower, -5.45
- U55G G69A C73A — lower, -3.04
- C56U C98A — lower, -5.17
- G57U U78A G117A G135U — within 0.2 log units, -2.21
- C56U C102U — within 0.2 log units, -2.28
- C56U C102A — higher, -1.94
- C56A C89U C102U G113U — lower, -6.7
- U54G A103U — lower, -4.6
- C56A C72G — higher, -0.848
- U55C C70U C85A — higher, -2.03
- U54G C56G C72A G93A — lower, -4.53
- U54C U116A U131C — lower, -3.16
- C56A C62U C114U — within 0.2 log units, -2.3
- U55A G77U C115U U125A — higher, -1.02
- U55G C56U A95U — higher, -1.91
- C56U C73U C76U — within 0.2 log units, -2.54
- C56U C70U C82G C124A U130C — higher, 0.377
- U55C C82A C124G — higher, 1.37
- G57U U116A — lower, -3.39
- U55G C89G — higher, -1.51
- U55G C115U — higher, -0.797
- G58A G60C G120C — lower, -3.34
- C56U G61U C82A A91G C114U — lower, -6.55
- U55G C56A — higher, -0.837
- U55G C56G — higher, -1.53
- G57A C114U — lower, -3.27
- C56G G77U C115G — lower, -3.16
- U55A G57A G61A G77A U87A A100C — higher, -1.72
- C56G C64U C80A — lower, -2.96
- U54G C80A C88A — lower, -4.43
- G57U C82G G110U — within 0.2 log units, -2.25
- C56U U96C C99U — lower, -3.29
- G57U C72U A83U A111U — lower, -4.12
- C56G G57U G63U — lower, -3.14
- U54G C101U U106A U116G — lower, -3.87
- U54C G60U G69U U133G — lower, -2.67
- C56U A105U G122A — lower, -2.96
- C56G C88U — higher, -0.184
- C56U C85G A91U C101U U106C — lower, -4.05
- C56U C114U — higher, -1.71
- U55G C70G A100C — lower, -3.29
- G57C C82G C97U — higher, -1.07
- G57A C123U — higher, -0.636
- C56U G69U A90C C94A C104G G113U G122A — lower, -6.84
- G57C G69C U131A — higher, -0.151
- C56U G110U C114U U125A — lower, -3.23
- G57A G61A A90G C124A — higher, 0.849
- C56U C79G C102U C104U — lower, -4.64
- C56G G69A A119U — lower, -3.54
- C56U G60A C98U G117C C124U U130A — lower, -6.06
- G58A G61A G120A — higher, 0.579
- U54C U109A G120C — lower, -5.52
- G58A C76U — higher, -0.743
- C56A G71U U81C A111U C115U — lower, -6.9
- G57U G60A C114A U129A — lower, -3.12
- U54C G61C — higher, -2.14
- U54G C85U U116G — lower, -3.02
- G57A C82U A105G G120U — lower, -4.95
- G57A G69C — higher, -1.82
- C56U G61C — lower, -6.29
- U54C C76U — higher, -0.00868
- C56G U81A U87A — higher, -1.8
- C56G G60U — higher, -1.44
- U55G G60U A103U — lower, -5.31
- G57A U81A C104U — higher, -1.98
- C56U C99A — lower, -6.27
- C56U C99U — lower, -3.34
- C56A A83U C85U C99U — lower, -3.58
- C56U C62A — lower, -5.47
- C56U C62G — lower, -5.27
- C56A C80U A111U — lower, -4
- C56U A66U G69U C80A A121C U130A — lower, -6.49
- C56U A100C — higher, -1.29
- C56U G65C — lower, -5.42
- G57U C82G A95G A111U C123U — lower, -5.66
- C56G C89A — within 0.2 log units, -2.22
- C56U C82A U106G G117U — lower, -4.65
- C56U C115U — higher, -0.661
- U55A C79G — higher, -0.669
- C56G G110U G135C — higher, -1.62
- C56A C104A A105U G110A — lower, -7.24
- C56U C97A — lower, -4.36
- C56U C72U U112G G117U C124U — within 0.2 log units, -2.21
- G57C C79U G110A — lower, -3.76
- C56G C72U C88U U106A U133A — higher, -1.24
- C56A A90U — higher, -1.48
- C56U C104A — higher, -1.58
- C56A C76A C88A C115U — lower, -3.94
- C56A G69C C79U G113U G117A — lower, -5.4
- C56A U106G G110C — lower, -5.41
- G57U U78A C80U — higher, -0.707
- U54C C56A C64A C85G G117A — lower, -7.73
- U55C G60A C94A G113U — lower, -4.46
- C56U C79A C101U — higher, -1.23
- C56U A84G U133G — higher, -1.14
